Source: US20230212268A1 (UNM RAINFOREST INNOVATIONS, published 2023)

Molecular target: T1, recombinant EBOV glycoprotein (EBOV (Zaire ebolavirus), UniProt Q05320 33-650)
T1 sequence: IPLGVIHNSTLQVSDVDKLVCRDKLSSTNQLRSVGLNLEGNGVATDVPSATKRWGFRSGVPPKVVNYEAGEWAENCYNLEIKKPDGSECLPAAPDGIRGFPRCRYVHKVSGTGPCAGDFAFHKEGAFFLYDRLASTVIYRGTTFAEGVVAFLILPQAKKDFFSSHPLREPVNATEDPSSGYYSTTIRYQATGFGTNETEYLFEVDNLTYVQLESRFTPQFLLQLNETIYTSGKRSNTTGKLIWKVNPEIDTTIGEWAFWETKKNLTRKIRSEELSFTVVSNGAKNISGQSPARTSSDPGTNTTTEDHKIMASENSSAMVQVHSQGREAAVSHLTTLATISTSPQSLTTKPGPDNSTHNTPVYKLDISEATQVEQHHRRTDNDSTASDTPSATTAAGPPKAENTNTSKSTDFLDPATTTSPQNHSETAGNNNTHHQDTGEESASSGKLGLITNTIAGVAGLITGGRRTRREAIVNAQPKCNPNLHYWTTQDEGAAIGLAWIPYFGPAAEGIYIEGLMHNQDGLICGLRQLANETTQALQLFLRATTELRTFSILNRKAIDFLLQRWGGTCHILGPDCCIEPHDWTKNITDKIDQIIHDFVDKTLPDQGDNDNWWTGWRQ
Assay: maximal binding from ELISA dose-response fit

B1: EbovGPscFv4-2 (scFv)
scFv: MAWSHPQFEKTGSGGAELVKSGASVKLSCTASGFNIKDDYMHWVKQRPEQGLEWIGWIDPENGDTEYASKFQGKATITADTSSNTAYLQLSSLTSEDTAVYYCTTYYYGSAWFAYWGQGTLVTVSAGGGGSGGGGSGGGGSGGGGSASLSVSVGETVTITCRASGNIHNYLAWYQQKQGKSPQLLVYNAKTLADGVPSRFSGSGSGTQYSLKINNLQPEDFGSYYCQHFWSTPYTFGGGTKLEIKRADAAPTVSIFPPSSEQLTSGGASVVCFLNNFTHCQELQQDECS
Binder B1 has a Bmax signal of 350000 relative absorbance units.
